Results on 30 sequences are retold here after the supplement of paper PMC9233669.

Data set [1] concerns biotinyl-Leu-oxazolone. The experiment in a line: self-aminoacylation, catalytic enhancement (BLO) (fold over background); higher = more active; k-Seq, kA / k0A0; sequences stand for … in GGGAAUGGAUCCACAUCUACGAAUUC…UUCACUGCAGACUUGACGAAGCUG
In outline:
(§1)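 Working in 50 μL HEPES/NaCl/KCl/MgCl2/CaCl2 buffer with 5% acetonitrile at pH 6.9–7.0, mutagenized RNA pools (0.43 μM; 21-nt variable region) were reacted with 2–1250 μM of each biotinyl-aminoacyl-oxazolone for 90 minutes at room temperature. Streptavidin capture followed, with quantification by triplicate qPCR and Illumina sequencing. Catalytic enhancement is reported as median kA over the uncatalyzed rate, the low-activity peak of a bimodal Gaussian fit to the data.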

Data set [2] has as its system biotinyl-Phe-oxazolone. The experiment in a line: self-aminoacylation, catalytic enhancement (BFO) (fold over background); higher = more active; k-Seq, kA / k0A0; sequences stand for … in GGGAAUGGAUCCACAUCUACGAAUUC…UUCACUGCAGACUUGACGAAGCUG
In outline: as §1

Data set [3] has as its system biotinyl-Val-oxazolone. The experiment in a line: self-aminoacylation, catalytic enhancement (BVO) (fold over background); higher = more active; k-Seq, kA / k0A0; sequences stand for … in GGGAAUGGAUCCACAUCUACGAAUUC…UUCACUGCAGACUUGACGAAGCUG
In outline:
as §1

Data set [4] deals with biotinyl-Met-oxazolone. The data set can be described thus: self-aminoacylation, catalytic enhancement (BMO) (fold over background); higher = more active; k-Seq, kA / k0A0; sequences stand for … in GGGAAUGGAUCCACAUCUACGAAUUC…UUCACUGCAGACUUGACGAAGCUG
In outline: as §1

The test system of data set [5] is biotinyl-Ile-oxazolone. The data set can be described thus: self-aminoacylation, catalytic enhancement (BIO) (fold over background); higher = more active; k-Seq, kA / k0A0; sequences stand for … in GGGAAUGGAUCCACAUCUACGAAUUC…UUCACUGCAGACUUGACGAAGCUG
Put shortly:
as §1

Data set [6] has as its system biotinyl-Trp-oxazolone. The data set can be described thus: self-aminoacylation, catalytic enhancement (BWO) (fold over background); higher = more active; k-Seq, kA / k0A0; sequences stand for … in GGGAAUGGAUCCACAUCUACGAAUUC…UUCACUGCAGACUUGACGAAGCUG
In outline: as §1

Fewer inactive variants are shown than the library holds.

For the sequence “AUUCACCUAGGCCAUCGGCUG [Fam2.2 aminoacylation ribozyme variant]”, the self-aminoacylation came to 2.03 in data set [1], 10.5 in data set [2], 2.59 in data set [3] and 2.27 in data set [4].

In the case of “AUUCACCUAGGUCAACGGGCG [Fam2.2 aminoacylation ribozyme variant]”, the self-aminoacylation in data set [5] turned out to be 2.59; in data set [1], 3.24; in data set [2] it was 10.4; in data set [4] it was 2.85.

Turning to “AUUCACCUAGGUCAUCGCCUG [Fam2.2 aminoacylation ribozyme variant]”, the self-aminoacylation in data set [5] was found to be 2.01; in data set [1], 3.01; in data set [2], 8.71; in data set [3], 2.44; in data set [6], 2.11.

For the sequence “AUUCACCUAUGUCAUGGGGUG [Fam2.2 aminoacylation ribozyme variant]”, the self-aminoacylation came out at 3.16 in data set [1]; 14.1 in data set [2]; 2.07 in data set [3]; 2.89 in data set [4]; 2.69 in data set [6].

As to “AUUCACGUAGGUCAUCGGGUC [Fam2.2 aminoacylation ribozyme variant]”, the self-aminoacylation in data set [2] was determined as 9.36; in data set [3] it was 2.28; in data set [4] it was 2.19.

For the sequence “AUUCAGCUACGUCAUCGGGUG [Fam2.2 aminoacylation ribozyme variant]”, the self-aminoacylation in data set [1] is 2.71; in data set [2], 10.1; in data set [3], 2.02; in data set [6] it was 3.07.

Consider “AUUCUCCUAGGUCAUCGGGGG [Fam2.2 aminoacylation ribozyme variant]”, for which the self-aminoacylation in data set [5] was 2.7; in data set [1], 3.88; in data set [3] it was 3.29; in data set [4], 3.48; in data set [6], 3.

Consider “CAACUUCAAACAAUCGGUCGG [Fam1A.1 aminoacylation ribozyme variant]”, for which the self-aminoacylation in data set [1] came to 2.79; in data set [2] it was 87.2; in data set [4], 2.1; in data set [6], 32.4.

Consider “CCAAACUUCAAGCAAUCGGGC [Fam1B.1 aminoacylation ribozyme variant]”, for which the self-aminoacylation in data set [5] was determined as 2.08; in data set [3], 2.26; in data set [4], 2.17; in data set [6], 2.01.

On to “CCACAAUUCAAGCAAUCGGGC [Fam1B.1 aminoacylation ribozyme variant]”, for which the figures for the self-aminoacylation in data set [5], in data set [4] and in data set [6] were 2.22, 2.14 and 2.04, respectively.

For the sequence “CCACAAUUCACGCAAUCGGUC [Fam1B.1 aminoacylation ribozyme variant]”, the self-aminoacylation in data set [3] is 2.05.

With “CCACACCUCAAGCAUUCGGUC [Fam1B.1 aminoacylation ribozyme variant]”, the self-aminoacylation in data set [5] came out at 2.26; in data set [2], 2.12; in data set [3], 2.54; in data set [6], 2.49.

As for “CCACACGUCAAGCAAUCGCUC [Fam1B.1 aminoacylation ribozyme variant]”, the results for the self-aminoacylation in data set [3] and in data set [4] were 2.54 and 2.64, respectively.

Regarding “CCACACGUCAAGCAAUCGGUU [Fam1B.1 aminoacylation ribozyme variant]”, the self-aminoacylation in data set [3] was determined as 2.28.

“CCACACUUCAAGCAACCGGGC [Fam1B.1 aminoacylation ribozyme variant]”: the self-aminoacylation in data set [5] is 2.77; in data set [1] it was 3.43; in data set [2], 3.1; in data set [3], 3.18; in data set [6], 4.79.

Take “CCACACUUCAAGCAAUCGGCC [Fam1B.1 aminoacylation ribozyme variant]”: the self-aminoacylation in data set [2] is 4.93; in data set [3], 2.17; in data set [6] it was 4.72.

On to “CCACACUUCAAUCAAUCGGCC [Fam1B.1 aminoacylation ribozyme variant]”, for which the self-aminoacylation in data set [1] stood at 2.16; in data set [2], 2.71; in data set [3], 2.11; in data set [6], 2.62.

“CCACACUUCAGGCAAUCGCUC [Fam1B.1 aminoacylation ribozyme variant]”: the self-aminoacylation in data set [5] was 2.5; in data set [1], 2.71; in data set [2] it was 17.5; in data set [3], 2.04.

For “CCACUCUUCAAGCAAUCGGCC [Fam1B.1 aminoacylation ribozyme variant]”, the self-aminoacylation in data set [1] came to 2.23; in data set [2], 4.1; in data set [3] it was 2.16; in data set [6], 4.14.

Take “CCAGACUUCAAGCAUUCGGUC [Fam1B.1 aminoacylation ribozyme variant]”: the self-aminoacylation was found to be 2.03 in data set [5], 2.08 in data set [1], 2.16 in data set [3] and 2.12 in data set [4].

In the case of “CCAGACUUCGAGCAAUCGGUC [Fam1B.1 aminoacylation ribozyme variant]”, the self-aminoacylation in data set [3] was determined as 2.09.

For the sequence “CCGCACUUCAAGCAAUCGGUU [Fam1B.1 aminoacylation ribozyme variant]”, the self-aminoacylation in data set [1] amounted to 2.4; in data set [2], 13.9; in data set [3] it was 2.45; in data set [6], 14.4.

Take “CCGCACUUCAAGCCAUCGGUC [Fam1B.1 aminoacylation ribozyme variant]”: the self-aminoacylation in data set [2] came out at 2.13; in data set [3], 2.26; in data set [6] it was 2.01.

Take “CUACUGCAAACAUUCGGUCUG [Fam1A.1 aminoacylation ribozyme variant]”: the self-aminoacylation is 2.01 in data set [5] and 9.39 in data set [2].

With “CUGCUUCAAACAAUCGGUGUG [Fam1A.1 aminoacylation ribozyme variant]”, the self-aminoacylation in data set [1] was 3.16; in data set [2], 124; in data set [4], 2.12; in data set [6], 49.6.

In the case of “CUUAGCCUGGUCAUCGAGUGA [Fam2.1 aminoacylation ribozyme variant]”, the self-aminoacylation in data set [1] was found to be 3.38; in data set [2] it was 2.6; in data set [4], 2.57; in data set [6] it was 2.72.

With “CUUCACCUAGGUCAUCGGCUG [Fam2.2 aminoacylation ribozyme variant]”, the values for the self-aminoacylation in data set [2], in data set [3] and in data set [6] were 9.39, 2.27 and 2.25, respectively.

On to “CUUCACCUAGUUCAUCGGGUG [Fam2.2 aminoacylation ribozyme variant]”, for which the self-aminoacylation in data set [5] was determined as 2.15; in data set [1] it was 2.87; in data set [3], 2.27; in data set [4], 2.54; in data set [6] it was 2.53.

Regarding “GAGUUGGCUAAUAGUCGCAAG [Fam3.1 aminoacylation ribozyme variant]”, the self-aminoacylation stood at 2.02 in data set [5]; 2.86 in data set [2]; 2.22 in data set [3]; 2.04 in data set [4]; 3.02 in data set [6].

For the sequence “UUUCACCUAGGUCAUCGGGUC [Fam2.2 aminoacylation ribozyme variant]”, the self-aminoacylation was determined as 2.14 in data set [2] and 2.09 in data set [3].
